{"source": "patent US20220119534A1", "about": "(DRAGONFLY THERAPEUTICS, published 2022)", "binders": {"B1": {"name": "AB0192 TriNKET (other)", "chain": "EVQLVESGGGVVQPGGSLRLSCAASGFTFNAFGMHWVRQAPGKCLEWVAFISSGSTSIYYANTVKGRFTISRDNSKNTLYLQMNSLRAEDTAVYYCARDGYPTGGAMDYWGQGTSVTVSSGGGGSGGGGSGGGGSGGGGSDIQMTQSPSSLSASVGDRVTITCKASQDIYNYLSWFQQKPGKAPKPLIYRANILVSGVPSRFSGSGSGQDYTFTISSLQPEDIATYYCLQFDAFPFTFGCGTKLEIKGSDKTHTCPPCPAPELLGGPSVFLFPPKPKDTLMISRTPEVTCVVVDVSHEDPEVKFNWYVDGVEVHNAKTKPREEQYNSTYRVVSVLTVLHQDWLNGKEYKCKVSNKALPAPIEKTISKAKGQPREPRVYTLPPCRDELTKNQVSLTCLVKGFYPSDIAVEWESNGQPENNYKTTPPVLVSDGSFTLYSKLTVDKSRWQQGNVFSCSVMHEALHNHYTQKSLSLSPG", "heavy": "EVQLVESGGGLVKPGGSLRLSCAASGFTFSSYSMNWVRQAPGKGLEWVSSISSSSSYIYYADSVKGRFTISRDNAKNSLYLQMNSLRAEDTAVYYCARGAPIGAAAGWFDPWGQGTLVTVSSASTKGPSVFPLAPSSKSTSGGTAALGCLVKDYFPEPVTVSWNSGALTSGVHTFPAVLQSSGLYSLSSVVTVPSSSLGTQTYICNVNHKPSNTKVDKKVEPKSCDKTHTCPPCPAPELLGGPSVFLFPPKPKDTLMISRTPEVTCVVVDVSHEDPEVKFNWYVDGVEVHNAKTKPREEQYNSTYRVVSVLTVLHQDWLNGKEYKCKVSNKALPAPIEKTISKAKGQPREPQVCTLPPSRDELTENQVSLTCLVKGFYPSDIAVEWESNGQPENNYKTTPPVLDSDGSFFLYSWLTVDKSRWQQGNVFSCSVMHEALHNHYTQKSLSLSPG", "light": "DIQMTQSPSSVSASVGDRVTITCRASQGISSWLAWYQQKPGKAPKLLIYAASSLQSGVPSRFSGSGSGTDFTLTISSLQPEDFATYYCQQGVSFPRTFGGGTKVEIKRTVAAPSVFIFPPSDEQLKSGTASVVCLLNNFYPREAKVQWKVDNALQSGNSQESVTEQDSKDSTYSLSSTLTLSKADYEKHKVYACEVTHQGLSSPVTKSFNRGEC", "notes": "the condition stands under assay; also called AB0192 Lot AB0192-005"}, "B2": {"name": "F3'-1602 TriNKET (other)", "chain": "QLQLQESGPGLVKPSETLSLTCTVSGFSLTNYGLHWIRQPPGKCLEWIGVIWSGGKTDYNPSLKSRVTISKDTSKNQFSLKLSSVQAADTAVYYCAKYDYDDSLDYWGQGTLVTVSSGGGGSGGGGSGGGGSGGGGSDIQMTQSPSSLSASVGDRVTITCHASQNINFWLSWYQQKPGKAPKLLIYEASNLHTGVPSRFSGSGSGTRFTLTISSLQPEDIATYYCQQSHSYPLTFGCGTKLEIKGSDKTHTCPPCPAPELLGGPSVFLFPPKPKDTLMISRTPEVTCVVVDVSHEDPEVKFNWYVDGVEVHNAKTKPREEQYNSTYRVVSVLTVLHQDWLNGKEYKCKVSNKALPAPIEKTISKAKGQPREPRVYTLPPCRDELTKNQVSLTCLVKGFYPSDIAVEWESNGQPENNYKTTPPVLVSDGSFTLYSKLTVDKSRWQQGNVFSCSVMHEALHNHYTQKSLSLSPG", "heavy": "EVQLVESGGGLVKPGGSLRLSCAASGFTFSSYSMNWVRQAPGKGLEWVSSISSSSSYIYYADSVKGRFTISRDNAKNSLYLQMNSLRAEDTAVYYCARGAPIGAAAGWFDPWGQGTLVTVSSASTKGPSVFPLAPSSKSTSGGTAALGCLVKDYFPEPVTVSWNSGALTSGVHTFPAVLQSSGLYSLSSVVTVPSSSLGTQTYICNVNHKPSNTKVDKKVEPKSCDKTHTCPPCPAPELLGGPSVFLFPPKPKDTLMISRTPEVTCVVVDVSHEDPEVKFNWYVDGVEVHNAKTKPREEQYNSTYRVVSVLTVLHQDWLNGKEYKCKVSNKALPAPIEKTISKAKGQPREPQVCTLPPSRDELTENQVSLTCLVKGFYPSDIAVEWESNGQPENNYKTTPPVLDSDGSFFLYSWLTVDKSRWQQGNVFSCSVMHEALHNHYTQKSLSLSPG", "light": "DIQMTQSPSSVSASVGDRVTITCRASQGISSWLAWYQQKPGKAPKLLIYAASSLQSGVPSRFSGSGSGTDFTLTISSLQPEDFATYYCQQGVSFPRTFGGGTKVEIKRTVAAPSVFIFPPSDEQLKSGTASVVCLLNNFYPREAKVQWKVDNALQSGNSQESVTEQDSKDSTYSLSSTLTLSKADYEKHKVYACEVTHQGLSSPVTKSFNRGEC", "notes": "CLEC12A scFv-Fc, NKG2D A49MI Fab-Fc, human IgG1 Fc; also called AB0237"}}, "key": {"[1]": {"biological_target": "T1, Human CLEC12A-K244Q-His (human, UniProt Q5QGZ9 65-265)", "T1 construct": "Polymorphic variant; also called hCLEC12A (Q244); not shown: His tag", "T1 chain": "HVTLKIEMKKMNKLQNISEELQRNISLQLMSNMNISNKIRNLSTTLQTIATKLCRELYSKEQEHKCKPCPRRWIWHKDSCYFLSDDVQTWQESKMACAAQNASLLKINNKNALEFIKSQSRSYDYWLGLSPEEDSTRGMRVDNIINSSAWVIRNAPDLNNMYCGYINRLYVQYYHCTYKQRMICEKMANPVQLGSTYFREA", "assay": "SPR, hCLEC12A (Q244) variant"}, "[2]": {"biological_target": "T2, Human CD16a V158 (human, UniProt P08637 17-208, biotinylated)", "T2 construct": "Bought recombinant receptor; also called hCD16a (V158); hFcγRIIIa V158", "T2 sequence (P08637 17-208 F176V limits assumed)": "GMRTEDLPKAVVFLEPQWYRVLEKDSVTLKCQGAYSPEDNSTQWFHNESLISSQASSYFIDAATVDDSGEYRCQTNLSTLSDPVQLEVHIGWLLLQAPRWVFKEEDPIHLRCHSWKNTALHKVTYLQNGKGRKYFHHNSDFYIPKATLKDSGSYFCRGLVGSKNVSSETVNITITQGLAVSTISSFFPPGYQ", "assay": "SPR; control sample (forced oxidation study)"}, "[3]": {"biological_target": "T3, Human CLEC12A-His (human, UniProt Q5QGZ9 65-265)", "T3 construct": "Recombinant soluble protein made in house; also called hCLEC12A-His; hCLEC12A; not shown: His tag", "T3 sequence": "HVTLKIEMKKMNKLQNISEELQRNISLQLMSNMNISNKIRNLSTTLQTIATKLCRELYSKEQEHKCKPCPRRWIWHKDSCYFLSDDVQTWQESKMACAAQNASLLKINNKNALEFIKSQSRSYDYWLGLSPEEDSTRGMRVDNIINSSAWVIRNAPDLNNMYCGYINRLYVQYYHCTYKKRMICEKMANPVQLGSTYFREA", "assay": "SPR; control sample (forced oxidation study)"}, "[4]": {"biological_target": "T4, mFc-hNKG2D (human, UniProt P26718 73-216)", "T4 construct": "extracellular domain; Recombinant mFc-tagged NKG2D dimer, made in house; also called human NKG2D; not shown: mouse Fc tag", "T4 sequence (looked up)": "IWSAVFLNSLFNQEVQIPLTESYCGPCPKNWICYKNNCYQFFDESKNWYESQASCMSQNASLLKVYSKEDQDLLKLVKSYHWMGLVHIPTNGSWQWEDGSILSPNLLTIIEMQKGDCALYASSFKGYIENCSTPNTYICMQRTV", "assay": "SPR; control sample (forced oxidation study)"}, "[5]": {"biological_target": "T5, human CLEC12A expressed on cells (human, UniProt Q5QGZ9 1-265)", "T5 construct": "Transduced isogenic cells or endogenous expression on AML cells; also called RMA-hCLEC12A; Ba/F3-hCLEC12A", "T5 sequence": "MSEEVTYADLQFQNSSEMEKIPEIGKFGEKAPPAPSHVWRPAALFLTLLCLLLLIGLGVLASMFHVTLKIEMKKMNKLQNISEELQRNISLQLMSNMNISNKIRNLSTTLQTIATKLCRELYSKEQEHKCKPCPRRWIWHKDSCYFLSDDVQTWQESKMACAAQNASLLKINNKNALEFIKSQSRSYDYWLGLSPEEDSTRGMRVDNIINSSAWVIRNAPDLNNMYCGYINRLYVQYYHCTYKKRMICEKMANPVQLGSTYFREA", "assay": "flow cytometry, HL-60"}}, "data": [{"binder": "B1", "values": [{"measurement": "Kd", "setting": "[1]", "result": 4.51, "unit": "nM"}, {"measurement": "koff", "setting": "[1]", "result": 0.0037, "unit": "s⁻¹"}, {"measurement": "kon", "setting": "[1]", "result": 824000, "unit": "M⁻¹ s⁻¹"}, {"measurement": "Kd", "setting": "[2]", "result": 177, "unit": "nM"}, {"measurement": "koff", "setting": "[2]", "result": 0.0202, "unit": "s⁻¹"}, {"measurement": "kon", "setting": "[2]", "result": 115000, "unit": "M⁻¹ s⁻¹"}, {"measurement": "Kd", "setting": "[3]", "result": 1.68, "unit": "nM"}, {"measurement": "koff", "setting": "[3]", "result": 0.00129, "unit": "s⁻¹"}, {"measurement": "kon", "setting": "[3]", "result": 771000, "unit": "M⁻¹ s⁻¹"}, {"measurement": "Kd", "setting": "[4]", "result": 598, "unit": "nM"}, {"measurement": "koff", "setting": "[4]", "result": 0.124, "unit": "s⁻¹"}, {"measurement": "kon", "setting": "[4]", "result": 208000, "unit": "M⁻¹ s⁻¹"}]}, {"binder": "B2", "values": [{"measurement": "fold lower EC50 than AB0010", "setting": "[5]", "result": "~2", "unit": "fold"}]}]}
